Measurements taken from article PMC5597622, “Engineered factor Xa variants retain procoagulant activity independent of direct factor Xa inhibitors” (Nature Communications, 2017).
Like-named read-outs stand apart in the source and are kept apart here. Non-standard residues stand in square brackets, D forms with d. Residues, ends and D or L forms follow the SMILES beside them. *: point of attachment. dChg = N[C@@H](C(=O)O)C1CCCCC1; pNA = O=[N+]([O-])c1ccc(N*)cc1; Cbz = O=C(OCc1ccccc1)*; Moc = COC(=O)*

Key:
[1] = target: RVV-X activated P. textilis venom FX (Pseudonaja textilis, UniProt Q56VR3); test: biochemical
[2] = target: purified recombinant P. textilis venom FXa (v-FXa) (Pseudonaja textilis, UniProt Q56VR3); test: biochemical
[3] = target: RVV-X activated P. textilis liver FX (Pseudonaja textilis, UniProt Q1L659); test: biochemical
[4] = target: RVV-X activated P. textilis isoform FX (Pseudonaja textilis, UniProt Q1L658); test: biochemical
pd-FXa (h-FXa) [5] = target: T1, pd-FXa (h-FXa) (Homo sapiens, UniProt P00742); type: biochemical; settings: read-out: S2765^b K m; n = 2
T1 construct: gene F10; plasma-derived human FXa (Haematologic Technologies); free or prothrombinase-assembled with FV-810 and PCPS, see series

FXa-C [6] = tested on: T2, FXa-C; type: biochemical; settings: n = 2; read-out: S2765^a K m
T2 construct: His91-Tyr99 replaced with homologous region of P. textilis isoform FX

FXa-B [7] = tested on: T3, FXa-B; type: biochemical; settings: n = 2; read-out: S2765^b K m
T3 construct: His91-Tyr99 replaced with homologous region of T. carinatus venom FX

FXa-A [8] = tested on: T4, FXa-A; type: biochemical; settings: n = 2; read-out: S2765^b K m
T4 construct: His91-Tyr99 replaced with homologous region of P. textilis venom FX

FXa-A [9] = tested on: T4, FXa-A; type: biochemical; settings: n = 2; read-out: S2765^a K m
FXa-C [10] = tested on: T2, FXa-C; type: biochemical; settings: n = 2; read-out: S2765^b K m
FXa-B [11] = tested on: T3, FXa-B; type: biochemical; settings: n = 2; read-out: S2765^a K m
pd-FXa (h-FXa) [12] = target: T1, pd-FXa (h-FXa); type: biochemical; settings: read-out: S2765^a K m; n = 2
wt-FXa (WT) [13] = target: T5, wt-FXa (WT) (Homo sapiens, UniProt P00742); type: biochemical; settings: read-out: S2765^b K m; n = 2
T5 construct: gene F10; free or prothrombinase-assembled with FV-810 and PCPS, see series

wt-FXa (WT) [14] = target: T5, wt-FXa (WT); type: biochemical; settings: read-out: S2765^a K m; n = 2
FXa-B [15] = tested on: T3, FXa-B; type: biochemical; settings: read-out: SpecXa Michaelis–Menten constant (K m)
FXa-C [16] = tested on: T2, FXa-C; type: biochemical; settings: read-out: SpecXa Michaelis–Menten constant (K m)
wt-FXa (WT) [17] = target: T5, wt-FXa (WT); type: biochemical; settings: read-out: SpecXa Michaelis–Menten constant (K m)
pd-FXa (h-FXa) [18] = target: T1, pd-FXa (h-FXa); type: biochemical; settings: read-out: SpecXa Michaelis–Menten constant (K m)
FXa-A [19] = tested on: T4, FXa-A; type: biochemical; settings: read-out: SpecXa Michaelis–Menten constant (K m)
[20] = target: chimeric factor Xa variant C (human FXa with His91-Tyr99 replaced by the homologous region of P. textilis isoform FX) (human | Pseudonaja textilis)
[21] = target: chimeric factor Xa variant B (human FXa with His91-Tyr99 replaced by the homologous region of Tropid (human | Tropidechus carinatus))
[22] = target: recombinant wild-type human factor Xa (human)
[23] = target: plasma-derived human factor Xa (human)
[24] = target: constitutively active partial B-domainless recombinant form of human FV (FV-810) (human) (UniProt P12259); test: kinetic assay of prothrombinase assembly (rate of prothrombin activation); apparent; steady-state initial velocities of prothrombin activation at 25 °C in assay buffer (20 mM Hepes, 0.15 M NaCl, pH 7.5, 5 mM CaCl2, 0.1% PEG8000) with PCPS (50 µM); how the cofactor was varied is not told
FXa-A [25] = target: FXa-A (Homo sapiens, UniProt P00742); type: biochemical, human-snake chimera; settings: rTAP 0.5–100 nM, 1 nM FXa, 30 min
pd-FXa = target: T6, pd-FXa (Homo sapiens, UniProt P00742); type: biochemical
T6 construct: the heavy chain derived from α or β FXa (α/β), the FXa light chain (LC); purchased Haematologic Technologies (Essex Junction, VT, USA); host or cells: human plasma

FXa-C [26] = target: T7, FXa-C (Homo sapiens, UniProt P00742, E317A/INS311KKFVPPQKA/K316L/N312Y/R313K/T315D/T318A); type: biochemical, human-snake chimera; settings: rTAP 0.5–100 nM, 1 nM FXa, 30 min
T7 construct: made in house

FXa-B [27] = target: FXa-B (Homo sapiens, UniProt P00742); test: Inhibition of FXa by TFPI and rTAP (residual amidolytic activity); type: biochemical, human-snake chimera; settings: rTAP 0.5–100 nM, 1 nM FXa, 30 min
FXa-B [28] = test: as above; type: biochemical, human-snake chimera; settings: in the chimeric FXa variants
wt-FXa = target: T8, wt-FXa (Homo sapiens, UniProt P00742); test: as above; type: biochemical
T8 construct: made in house; host or cells: HEK293 (co-transfected with furin)

[29] = target: chimeric factor Xa variant C (human FXa with His91-Tyr99 replaced by the homologous region of P. textilis isoform FX) (human | Pseudonaja textilis); test: inhibition of enzyme amidolytic activity (Morrison tight-binding fit)
[30] = target: chimeric factor Xa variant B (human FXa with His91-Tyr99 replaced by the homologous region of Tropid (human | Tropidechus carinatus)); test: as above
[31] = target: recombinant wild-type human factor Xa (human); test: as above
[32] = target: plasma-derived human factor Xa (human); test: as above

With `COc1ccc(-n2nc(C(N)=O)c3c2C(=O)N(c2ccc(N4CCCCC4=O)cc2)CC3)cc1` [Apixaban, 1-(4-methoxyphenyl)-7-oxo-6-(4-(2-oxopiperidin-1-yl)phenyl)-4,5,6,7-tetrahydro-1H -pyrazolo[3,4-c]pyridine-3-carboxamide] the IC50 [1] was at least 100000 nM, the IC50 [2] was at least 100000 nM and the IC50 [3] was 12 nM. The IC50 [4] was at least 100000 nM.
`O=C(NC[C@H]1CN(c2ccc(N3CCOCC3=O)cc2)C(=O)O1)c1ccc(Cl)s1` [Rivaroxaban, 5-chloro-N-({(5S)-2-oxo-3-[4-(3-oxomorpholin-4-yl)phenyl]-1,3-oxazolidin-5-yl}methyl)thiophene-2-carboxamide] was tested, and the IC50 [2] was at least 30000 nM.
With `N=C(N)NCCC[C@H](NC(=O)CNC(=O)[C@@H](CCCNC(=N)N)NC(=O)OCc1ccccc1)C(=O)Nc1ccc([N+](=O)[O-])cc1` [S2765, N-α-benzyloxycarbonyl-D-Arg-Gly-Arg-pNA] (Cbz-[dR]-Gly-Arg-pNA) the Km (pd-FXa (h-FXa) [5]) was 29 ± 8 µM, the Km (FXa-C [6]) was 60 ± 11 µM and the Km (FXa-B [7]) was 249 ± 29 µM. It also gave a Km (FXa-A [8]) of 243 ± 50 µM, a Km (FXa-A [9]) of 39 ± 7 µM and a Km (FXa-C [10]) of 216 ± 28 µM. It also gave a Km (FXa-B [11]) of 49 ± 8 µM, a Km (pd-FXa (h-FXa) [12]) of 59 ± 19 µM and a Km (wt-FXa (WT) [13]) of 26 ± 8 µM. For the same molecule, the Km (wt-FXa (WT) [14]) was 33 ± 7 µM.
With `COC(=O)N[C@@H](C(=O)NCC(=O)N[C@@H](CCCNC(=N)N)C(=O)Nc1ccc([N+](=O)[O-])cc1)C1CCCCC1` [SpecXa, methoxycarbonylcyclohexylglycylglycyl-Arg-pNA] (Moc-[dChg]-Gly-Arg-pNA) the Km (FXa-B [15]) was 658 µM, the Km (FXa-C [16]) was 659 µM and the Km (wt-FXa (WT) [17]) was 135 µM. The Km (pd-FXa (h-FXa) [18]) was 138 µM and the Km (FXa-A [19]) was 645 µM.
“antithrombin (from UniProt P01008 33-464) (natural protein)” gave a k 2, UFH: second-order rate constant of FXa inhibition by antithrombin with unfractionated heparin [20] of 6.73e+06 M⁻¹ s⁻¹, a k 2, uncatalyzed: second-order rate constant of FXa inhibition by antithrombin [20] of 950 M⁻¹ s⁻¹ and a k 2, UFH: second-order rate constant of FXa inhibition by antithrombin with unfractionated heparin [21] of 1.02e+06 M⁻¹ s⁻¹. The k 2, uncatalyzed: second-order rate constant of FXa inhibition by antithrombin [21] was 410 M⁻¹ s⁻¹, the k 2, UFH: second-order rate constant of FXa inhibition by antithrombin with unfractionated heparin [22] was 3.09e+06 M⁻¹ s⁻¹ and the k 2, uncatalyzed: second-order rate constant of FXa inhibition by antithrombin [22] was 4070 M⁻¹ s⁻¹. It also gave a k 2, UFH: second-order rate constant of FXa inhibition by antithrombin with unfractionated heparin [23] of 3.59e+06 M⁻¹ s⁻¹ and a k 2, uncatalyzed: second-order rate constant of FXa inhibition by antithrombin [23] of 1550 M⁻¹ s⁻¹.
Molecule “chimeric factor Xa variant B (human FXa with His91-Tyr99 replaced by the homologous region of Tropid (enzyme)” has a Kd [24] of 0.85 nM.
With “chimeric factor Xa variant C (human FXa with His91-Tyr99 replaced by the homologous region of P. textilis isoform FX) (enzyme)” the Kd [24] was 0.57 nM.
Work on plasma-derived human factor Xa (enzyme) yielded a Kd [24] of 0.41 nM.
With “rTAP (YNRLCIKPRDWIDECDSNEGGERAYFRNGKGGCDSFWICPEDHTGADYYSSYRDCFNACI)” the Ki (FXa-A [25]) was 26.3 ± 8.45 nM, the Ki (pd-FXa) was 0.87 ± 0.18 nM and the Ki (FXa-C [26]) was 20.2 ± 6.56 nM. The Ki (FXa-B [27]) was 7.92 ± 1.88 nM, the fold reduced binding (FXa-B [28]) was “at least 11 fold” and the Ki (wt-FXa) was 0.7 ± 0.04 nM.
“recombinant tick saliva anticoagulant protein (from UniProt P17726 1-60) (natural protein)” gave a Ki [29] of 20.2 nM, a Ki [30] of 7.92 nM and a Ki [31] of 0.7 nM. The Ki [32] was 0.87 nM.
In the case of “recombinant wild-type human factor Xa (enzyme)”, the Kd [24] is reported as 1.44 nM.
With “tissue factor pathway inhibitor alpha (from UniProt P10646-1 29-304) (natural protein)” the Ki [29] was 6.46 nM, the Ki [30] was 4.41 nM and the Ki [31] was 1.62 nM.
